Reference: IntAct's records for PubMed 20603001

B1: Somatostatin receptor type 3 (Mus musculus), P30935 (parent)
chain: MATVTYPSSEPTTLDPGNASSTWPLDTTLGNTSAGASLTGLAVSGILISLVYLVVCVVGLLGNSLVIYVVLRHTSSPSVTSVYILNLALADELFMLGLPFLAAQNALSYWPFGSLMCRLVMAVDGINQFTSIFCLTVMSVDRYLAVVHPTRSARWRTAPVARTVSAAVWVASAVVVLPVVVFSGVPRGMSTCHMQWPEPAAAWRTAFIIYTAALGFFGPLLVICLCYLLIVVKVRSTTRRVRAPSCQWVQAPACQRRRRSERRVTRMVVAVVALFVLCWMPFYLLNIVNVVCPLPEEPAFFGLYFLVVALPYANSCANPILYGFLSYRFKQGFRRILLRPSRRIRSQEPGSGPPEKTEEEEDEEEEERREEEERRMQRGQEMNGRLSQIAQAGTSGQQPRPCTGTAKEQQLLPQEATAGDKASTLSHL
partner: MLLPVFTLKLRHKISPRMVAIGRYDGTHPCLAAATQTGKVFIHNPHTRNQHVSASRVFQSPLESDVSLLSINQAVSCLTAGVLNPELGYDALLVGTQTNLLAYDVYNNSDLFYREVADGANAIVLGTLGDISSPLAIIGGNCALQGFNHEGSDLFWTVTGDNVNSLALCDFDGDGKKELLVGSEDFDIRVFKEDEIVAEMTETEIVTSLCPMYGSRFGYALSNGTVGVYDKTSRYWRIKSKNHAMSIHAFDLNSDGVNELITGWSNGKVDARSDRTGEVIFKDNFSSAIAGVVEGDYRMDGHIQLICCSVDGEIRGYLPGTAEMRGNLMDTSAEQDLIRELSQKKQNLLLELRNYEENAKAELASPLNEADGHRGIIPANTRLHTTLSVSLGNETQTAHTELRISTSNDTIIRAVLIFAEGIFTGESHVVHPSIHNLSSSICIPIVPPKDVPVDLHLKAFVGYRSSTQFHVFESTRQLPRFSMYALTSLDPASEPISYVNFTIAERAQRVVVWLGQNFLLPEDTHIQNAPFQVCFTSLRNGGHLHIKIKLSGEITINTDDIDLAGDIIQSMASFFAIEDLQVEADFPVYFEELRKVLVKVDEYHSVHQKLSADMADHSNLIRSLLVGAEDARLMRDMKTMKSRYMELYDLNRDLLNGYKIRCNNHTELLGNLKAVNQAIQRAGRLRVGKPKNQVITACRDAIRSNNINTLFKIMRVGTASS
B2: ADP-ribosylation factor-like protein 6 (Homo sapiens), Q9H0F7 (parent)
chain: MGLLDRLSVLLGLKKKEVHVLCLGLDNSGKTTIINKLKPSNAQSQNILPTIGFSIEKFKSSSLSFTVFDMSGQGRYRNLWEHYYKEGQAIIFVIDSSDRLRMVVAKEELDTLLNHPDIKHRRIPILFFANKMDLRDAVTSVKVSQLLCLENIKDKPWHICASDAIKGEGLQEGVDWLQDQIQTVKT
partner: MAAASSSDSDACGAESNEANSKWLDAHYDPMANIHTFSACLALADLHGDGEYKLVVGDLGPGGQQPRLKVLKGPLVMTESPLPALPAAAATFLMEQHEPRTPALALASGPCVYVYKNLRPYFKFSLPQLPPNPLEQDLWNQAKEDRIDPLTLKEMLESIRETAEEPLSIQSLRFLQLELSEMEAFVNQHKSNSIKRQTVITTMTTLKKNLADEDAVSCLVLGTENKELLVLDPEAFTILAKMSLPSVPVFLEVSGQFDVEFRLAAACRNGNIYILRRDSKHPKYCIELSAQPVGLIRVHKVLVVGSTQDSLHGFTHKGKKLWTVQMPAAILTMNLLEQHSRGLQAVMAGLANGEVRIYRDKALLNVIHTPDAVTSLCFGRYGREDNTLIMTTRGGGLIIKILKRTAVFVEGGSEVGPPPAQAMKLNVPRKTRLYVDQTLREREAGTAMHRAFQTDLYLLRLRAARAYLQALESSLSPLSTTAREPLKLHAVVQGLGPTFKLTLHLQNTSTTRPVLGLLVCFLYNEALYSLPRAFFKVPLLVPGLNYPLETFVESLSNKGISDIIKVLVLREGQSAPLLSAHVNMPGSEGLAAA

Variants of: B1
Conditions: with bbs2_human BBS2, Q9BXC9

Variant | effect of a mutation on the interaction
C246A | disrupting interaction
Q247A | increasing interaction
A243F;Q247F | increasing interaction
P244A;Q247A | increasing interaction
C246A;Q247A | decreasing interaction

Variants of: B2
Conditions: with bbs1_human BBS1, Q8NFJ9

Variant | effect of a mutation on the interaction
Q73L | increasing interaction
